We go through eight variants from IntAct's records for PubMed 22664871.

To fix the notation:
B1: Tumor necrosis factor ligand superfamily member 11 (Homo sapiens), O14788 (parent)
chain: MRRASRDYTKYLRGSEEMGGGPGAPHEGPLHAPPPPAPHQPPAASRSMFVALLGLGLGQVVCSVALFFYFRAQMDPNRISEDGTHCIYRILRLHENADFQDTTLESQDTKLIPDSCRRIKQAFQGAVQKELQHIVGSQHIRAEKAMVDGSWLDLAKRSKLEAQPFAHLTINATDIPSGSHKVSLSSWYHDRGWAKISNMTFSNGKLIVNQDGFYYLYANICFRHHETSGDLATEYLQLMVYVTKTSIKIPSSHTLMKGGSTKYWSGNSEFHFYSINVGGFFKLRSGEEISIEVSNPSLLDPDQDATYFGAFKVRDID
partner: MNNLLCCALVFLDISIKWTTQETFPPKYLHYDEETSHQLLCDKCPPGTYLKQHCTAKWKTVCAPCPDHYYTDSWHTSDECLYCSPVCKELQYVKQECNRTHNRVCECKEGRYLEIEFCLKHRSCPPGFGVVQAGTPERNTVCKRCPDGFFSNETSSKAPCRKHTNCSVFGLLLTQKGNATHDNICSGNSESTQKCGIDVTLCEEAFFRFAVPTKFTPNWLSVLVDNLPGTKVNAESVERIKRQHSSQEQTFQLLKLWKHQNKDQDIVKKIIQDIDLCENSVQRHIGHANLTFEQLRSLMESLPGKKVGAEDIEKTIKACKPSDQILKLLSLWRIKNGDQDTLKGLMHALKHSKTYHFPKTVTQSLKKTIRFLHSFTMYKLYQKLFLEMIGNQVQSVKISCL
B2: Tumor necrosis factor ligand superfamily member 11 (Homo sapiens), O14788 (parent)
chain: B1 chain
partner: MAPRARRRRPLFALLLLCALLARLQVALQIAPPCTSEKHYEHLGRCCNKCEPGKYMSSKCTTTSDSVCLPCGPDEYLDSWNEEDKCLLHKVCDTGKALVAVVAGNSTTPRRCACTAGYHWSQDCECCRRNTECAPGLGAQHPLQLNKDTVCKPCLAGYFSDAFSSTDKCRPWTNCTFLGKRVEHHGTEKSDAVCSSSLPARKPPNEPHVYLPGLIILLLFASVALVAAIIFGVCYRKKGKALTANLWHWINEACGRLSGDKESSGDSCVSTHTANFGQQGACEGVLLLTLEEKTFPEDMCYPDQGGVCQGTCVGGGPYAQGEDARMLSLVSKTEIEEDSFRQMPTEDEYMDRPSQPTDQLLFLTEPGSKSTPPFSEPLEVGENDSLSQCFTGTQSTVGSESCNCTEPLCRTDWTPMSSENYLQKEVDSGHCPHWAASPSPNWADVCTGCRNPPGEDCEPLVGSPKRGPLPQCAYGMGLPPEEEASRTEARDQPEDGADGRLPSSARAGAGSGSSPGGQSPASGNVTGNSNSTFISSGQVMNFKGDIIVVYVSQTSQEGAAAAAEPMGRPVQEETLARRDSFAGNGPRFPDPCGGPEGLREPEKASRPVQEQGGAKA
B3: Tumor necrosis factor receptor superfamily member 11B (Homo sapiens), O00300 (parent)
chain: B1 partner
partner: B1 chain

One experiment covers variants of B1. The conditions noted are these: with tr11b_human TNFRSF11B.
With K257A, the “effect of a mutation on the interaction” value was “disrupting interaction strength”.

Consider R223A, for which the “effect of a mutation on the interaction” value is recorded as “disrupting interaction strength”.

On to Y241A, for which the “effect of a mutation on the interaction” value is recorded as “decreasing interaction strength”.

The variants in a further experiment derive from B2. The conditions noted are these: with tnr11_human TNFRSF11A.
With K257A, the “effect of a mutation on the interaction” value is listed as “disrupting interaction strength”.

R223A: the “effect of a mutation on the interaction” value was “disrupting interaction strength”.

Regarding Y241A, the “effect of a mutation on the interaction” value is reported as “decreasing interaction strength”.

The variants in another experiment derive from B3. The conditions noted are these: with tnf11_human TNFSF11, O14788.
Regarding E116A, the “effect of a mutation on the interaction” value is on record as “decreasing interaction strength”.

On to D78A;E79A, for which the “effect of a mutation on the interaction” value is given as “with no effect”.
